Target: prostate-specific membrane antigen (Homo sapiens (Human), UniProt Q04609)
Assay: cell-based or functional assay

long-term T cell proliferation (absolute T cell counts over 31 days, no exogenous cytokine): 58 fold expansion
B1: P28BB (CAR)
chain: EVQLQQSGPELVKPGTSVRISCKTSGYTFTEYTIHWVKQSHGKSLEWIGNINPNNGGTTYNQKFEDKATLTVDKSSSTAYMELRSLTSEDSAVYYCAAGWNFDYWGQGTTVTVSSGGGGSGGGGSGGGGSDIVMTQSHKFMSTSVGDRVSIICKASQDVGTAVDWYQQKPGQSPKLLIYWASTRHTGVPDRFTGSGSGTDFTLTITNVQSEDLADYFCQQYNSYPLTFGAGTMLDLKRAAAIEVMYPPPYLDNEKSNGTIIHVKGKHLCPSPLFPGPSKPFWVLVVVGGVLACYSLLVTVAFIIFWVRSKRSRLLHSDYMNMTPRRPGPTRKHYQPYAPPRDFAAYRSRFSVVKRGRKKLLYIFKQPFMRPVQTTQEEDGCSCRFPEEEEGGCE

Reference: patent US20150342993A1, “COMPOSITIONS AND METHODS FOR IMMUNOTHERAPY” (MEMORIAL SLOAN-KETTERING CANCER CENTER, published 2015)
